Measurements as given in patent US20250129146A1, “COMBINED CANCER THERAPY WITH AN EPITHELIAL CELL ADHESION MOLECULE (EPCAM) INHIBITOR AND A WNT INHIBITOR” (ACADEMIA SINICA, priority 2021, published 2025).

Key:
Assay type in all cases: cell-based, human
[1] = tested on: active β-Catenin; test: Nuclear translocation of β-Catenin (immunofluorescence staining; cell fractionation with western blot)
Method: Cells (1×10^6) were seeded overnight and further allowed to grow in serum free conditions. Then cells were further treated with 20 μg/mL mEpAb2-6 or hEpAb2-6 or MT201 for 6 h or with 400 ng/mL LGK974 (MedChemExpress) for 9 h or combination as indicated. Samples were fractioned into cytosol and nuclear extracts using nuclear/cytosol fractionation kit (Biovision) according to the manufacturer's protocol. The fractions were then subjected to western blot analysis.
(§1) For western blotting, cells were extracted using radioimmunoprecipitation assay (RIPA) buffer [(0.01 M sodium phosphate, pH 7.2), 150 mM NaCl, 2 mM EDTA, 50 mM NaF, 1% Nonidet P-40, 1% sodium deoxycholate, and 0.1% SDS)] containing phosphatase inhibitor (Roche) and protease inhibitor (Roche) cocktail. Equal amounts of protein were separated by SDS-PAGE and then transferred to PVDF membranes. The membranes were blocked with 3% BSA in TBST (Blocking solution) and incubated with necessary primary antibodies in the blocking solution overnight at 4° C. Membranes were then incubated with HRP-conjugated secondary antibodies in the blocking solution for 1 h at room temperature, and protein expression were detected. Antibodies used: anti-α-tubulin (Sigma), anti-EpCAM (abeam), anti-Active β-Catenin (Millipore), anti-total β-Catenin (abeam), anti-Frizzled 6 (CST), anti-Frizzled 7 (Santa Cruz Biotech), anti-LRP5 (abcam), anti-Phospho-LRP5 (abcam), anti-Phospho-LRP6 (CST), anti-LRP6 (CST) and anti-EpEX antibody EpAb3-5 (Produced in house), anti-ADAM17 (abcam), anti-phopho-ADAM17 (abcam), anti-Presenilin2 (abcam), anti-phospho-Presenilin2 (S327) (abcam), anti-phospho-Presenilin2 (S330) (abcam) and anti-Axin2 (CST).
Glass slides were used in 24-well plates and coated with 0.1% gelatin. Further, 3×10^4 cells were seeded in serum free medium overnight. Cells were treated with 20 μg/mL EpAb2-6 for 6 h, or 400 ng/mL LGK974 (MedChemExpress) for 9 h or the combination. Cells were washed using ice-cold PBS and fixed with 4% paraformaldehyde for 15 min at RT and washed with ice-cold PBS. Further, cells were permeabilized using 0.1% triton-X in PBS for 20 min and subsequently washed with PBS. Cells were blocked with 3% BSA in PBS for 1 h at RT. Next, cells were treated with primary antibody anti-Active β-Catenin (Millipore) overnight. Then, cells were washed and treated with secondary antibody in 3% BSA containing PBS along with DAPI for 1 h at RT. Samples were then washed in PBS five times and mounted for microscopy. Nuclear β-Catenin intensities were calculated using IMARIS (Oxford Instruments) software.

[2] = tested on: TCF; test: TCF activity (TOP-Flash TCF luciferase reporter)
Method: Cells were plated at 5×10^3 cells per well and grown overnight in 12-well plates. Then, cells were transiently transfected with TOP-Flash TCF reporter plasmid (Millipore) using poly-jet transfection reagent (SignaGen). At 48 h post transfection, cells were treated with 20 µg/mL Anti-EpCAM EpAb2-6 (Produced in house) or MT201 (Produced in house) for 6 h or 400 ng/mL LGK974 (MedChemExpress) for 9 h or the combination, as indicated. In addition, cells were treated with EpEX (Produced in house by Expi293 Expression System) or recombinant Wnt3A (R & D systems) or the combination for 8 h. Finally, cells were lysed, and the luciferase assay was performed.
The cells were seeded in 24-well plates (1×10^4 cells/well) and incubated at 37° C. for 24 h. The culture media were refreshed, and the cells were transfected with respective reporter plasmids (TCF reporter or Wnt receptor promoter reporter) by PolyJET (SignaGen). The transfected efficiency was normalized by co-transfected with pRL-TK (20 ng) as an internal control. Additional treatments were conducted as indicated. Firefly luciferase and Renilla luminescence were measured 48 h post-transfection using the Dual-Glo Luciferase Assay System (Promega), according to the manufacturer's recommendations.

[3] = tested on: HCT116, HT29 and SW620 cells; test: Tumorsphere assay; details: for sphere formation capacity: SW620 cells, exogenous Wnt3A, EpEX or combination
Method: Cells were seeded in ultra-low adherent 6-well plates (5×10^4 cells per well) or 24-well plates (1×10^3 cells per well) and maintained in DMEM/F-12 supplemented with B27. Further, cells were treated with 20 μg/mL mEpAb2-6, hEpAb2-6 or MT201 (Produced in house), or 400 ng/mL LGK974 (MedChemExpress) or the combination, by direct addition to the culture medium. The entire culture medium, including the treatment component, was changed in every other day. Cells were cultured for 10 days, and on 10th day, spheres were counted and photographed under the microscope.

[4] = tested on: HT29 and SW620 cells; test: Colony formation assay; details: for colony formation capacity: SW620 cells, exogenous Wnt3A, EpEX or combination
Method: Cells were seeded in 12-well plate (5×10^3 cells per well) and treated with 20 µg/mL mEpAb2-6, hEpAb2-6 or MT201 (Produced in house) or 400 ng/mL LGK974 (MedChemExpress) or combination as indicated in which case the elements were directly added to the culture medium. The medium along with the treatment component were changed in every alternating day and the cells were allowed to grow for 10 days. On the tenth day, cells were washed and fixed with 4% paraformaldehyde and further stained with 1% crystal violet for 30 min. Colonies were washed 3 times with PBS, and images were taken. Furthermore, to measure colony density, the wells were incubated with 0.5% SDS shaking for 2 h at RT. The supernatants were collected, and the absorbance of the solution was taken at 570 nm using a microplate reader.

[5] = tested on: LRP5/6; test: Phosphorylation of LRP5/6 (western blot)
Method: as §1

[6] = tested on: Wnt receptors (FZD6/7, LRP5/6); test: Wnt receptor protein and mRNA expression (western blot, qPCR); details: HCT116 cells
Method: as §1
(§2) Total RNA was extracted using TRI reagent and 5 μg of the total RNA was further reverse-transcribed using oligo (dT) primer with reverse transcriptase. Quantitative real time RT-PCR (qPCR) was performed on cDNA using the Light Cycler 480 SYBR Green-I Master kit and the LightCycler480 System. The gene expression levels of each sample were normalized to the expression levels of glyceraldehyde 3-phosphate dehydrogenase (GAPDH) or β-actin.

[7] = tested on: Oct4, Sox2 and c-Myc; test: Stemness (pluripotency) factor expression (western blot, qPCR); details: HT29 cells
Method: as §1, §2

[8] = wild-type HCT116 cells, EpEX, recombinant Wnt3A or both
[9] = wild-type SW620 and HCT116 cells, EpEX, recombinant Wnt3A or the combination for 8 h
[10] = HCT116 cells, exogenous EpEX, Wnt3A or combination
[11] = EpEX, Wnt3A or combination, protein and mRNA level
[12] = EpCAM-knockout cells, exogenous EpEX, LGK974 or both

## MT201: adecatumumab, a human anti-EpCAM antibody that was subjected to clinical trials [reference compound]
[1]; HT29 cells, 20 μg/mL hEpAb2-6 or MT201 for 6 h
  nuclear translocation of β-Catenin: did not show any significant effects
[2]; HT29 cells, 20 µg/mL antibody for 6 h
  TCF activity: did not show any significant effects
[3]; comparison of EpAb2-6 with MT201, 20 μg/mL
  ability to inhibit sphere formation: shows no activity
[4]; comparison of EpAb2-6 with MT201, 20 g/mL
  ability to inhibit colony formation: shows no activity

B1: Wnt3A: recombinant Wnt3A (R & D systems) (protein, UniProt P56704 19-352, looked up)
Protein Wnt-3a: SYPIWWSLAVGPQYSSLGSQPILCASIPGLVPKQLRFCRNYVEIMPSVAEGIKIGIQECQHQFRGRRWNCTTVHDSLAIFGPVLDKATRESAFVHAIASAGVAFAVTRSCAEGTAAICGCSSRHQGSPGKGWKWGGCSEDIEFGGMVSREFADARENRPDARSAMNRHNNEAGRQAIASHMHLKCKCHGLSGSCEVKTCWWSQPDFRAIGDFLKDKYDSASEMVVEKHRESRGWVETLRPRYTYFKVPTERDLVYYEASPNFCEPNPETGSFGTRDRTCNVSSHGIDGCDLLCCGRGHNARAERRREKCRCVFHWCCYVSCQECTRVYDVHTCK
[1]; [8]
  nuclear translocation of β-Catenin: could increase
[2]; [9]
  TCF activity: could increase
[3]
  sphere formation capacity: enhanced
[4]
  colony formation capacity: enhanced
[5]; [10]
  LRP5/6 phosphorylation: increased LRP5/6 phosphorylation
[6]; [11]
  expression of Wnt receptors: upregulated expressions of Wnt receptors
[7]; EpEX, Wnt3A or combination
  expression of pluripotency factors: induced expressions of pluripotency factors

B2: EpEX: extracellular domain of EpCAM, produced in house by Expi293 Expression System (protein)
chain: QEECVCENYKLAVNCFVNNNRQCQCTSVGAQNTVICSKLAAKCLVMKAEMNGSKLGRRAKPEGALQNNDGLYDPDCDESGLFKAKQCNGTSMCWCVNTAGVRRTDKDTEITCSERVRTYWIIIELKHKAREKPYDSKSLRTALQKEITTRYQLDPKFITSILYENNVITIDLVQNSSQKTQNDVDIADVAYYFEKDVKGESLFHSKKMDLTVNGEQLDLDPGQTLIYYVDEKAPEFSMQGLKAGVIAVIVVVVIAVVAGIVVLVISRKKRMAKYEKAEIKEMGEMHRELNA
[1]; shEpCAM or KO-EpCAM HCT116 cells treated with exogenous EpEX
  nuclear accumulation of β-Catenin: significant increase in nuclear accumulation of β-Catenin
[1]; [8]
  nuclear translocation of β-Catenin: could increase
[2]; EpEX-treated EpCAM-knockdown and knockout HCT116 cells
  TCF activity: significantly rescued the phenomenon
[2]; [9]
  TCF activity: could increase
[3]; [12]
  tumorsphere formation: reverted to wild-type levels
[3]
  sphere formation capacity: enhanced
[4]; [12]
  colony formation: reverted to wild-type levels
[4]
  colony formation capacity: enhanced
[5]; [10]
  LRP5/6 phosphorylation: increased LRP5/6 phosphorylation
[6]; [11]
  expression of Wnt receptors: upregulated expressions of Wnt receptors
[7]; EpEX, Wnt3A or combination
  expression of pluripotency factors: induced expressions of pluripotency factors

B3: EpAb2-6: anti-EpCAM (EpEX) neutralizing monoclonal antibody produced in mice by hybridoma; VH SEQ ID NO: 15, VL SEQ ID NO: 16 (antibody, V domains shown)
VH: VKLQESGPELKKPGETVKISCKASGYTFTDYSMHWVKQAPGKGLKWMGWINTETGEPTYADDFKGRFAFSLETSASTAYLQINNLKNEDTATYFCARTAVYWGQGTTVTVSS
VL: DIQMTQSPSSLSASLGERVSLTCRASQEISVSLSWLQQEPDGTIKRLIYATSTLDSGVPKRFSGSRSGSDYSLTISSLESEDFVDYYCLQYASYPWTFGGGTKLEIK
[1]; wild-type HCT116 cells, 20 μg/mL EpAb2-6 for 6 h, 400 ng/mL LGK974 for 9 h or combination
  nuclear β-Catenin: significantly decreased nuclear β-Catenin signal
[3]; HCT116 and HT29 cells, 20 μg/mL EpAb2-6, 400 ng/mL LGK974 or combination, 10 days
  tumorsphere formation: decreased
[3]; summary statement, CRC cells, tumorsphere and colony formation
  cancer stemness properties: partially attenuate cancer sternness properties
[4]; HT29 cells, 20 µg/mL EpAb2-6, 400 ng/mL LGK974 or combination, 10 days
  colony formation: decreased
[5]; SW620 cells, LGK974, EpAb2-6 or combined treatment
  LRP5/6 phosphorylation: could decrease LRP5/6 phosphorylation
[6]; EpAb2-6, LGK974 or combination
  expression of Wnt receptors: partially decrease
[7]; LGK974, EpAb2-6 or combined treatment
  expression of pluripotency factors: decreased pluripotency factor expressions
